From paper PMC3605678 (The Journal of Biological Chemistry, 2013)

Key:
[1] = target: ERK5 kinase domain, ERK5-(1–431) (Homo sapiens, UniProt Q13164); experiment: Fluorescence polarization; settings: FP-based binding affinity measurements
[2] = target: ERK2 (Homo sapiens, UniProt P28482); experiment: FP-based binding affinity measurements with ERK2, direct titration
ERK2, sequence (P28482 whole entry): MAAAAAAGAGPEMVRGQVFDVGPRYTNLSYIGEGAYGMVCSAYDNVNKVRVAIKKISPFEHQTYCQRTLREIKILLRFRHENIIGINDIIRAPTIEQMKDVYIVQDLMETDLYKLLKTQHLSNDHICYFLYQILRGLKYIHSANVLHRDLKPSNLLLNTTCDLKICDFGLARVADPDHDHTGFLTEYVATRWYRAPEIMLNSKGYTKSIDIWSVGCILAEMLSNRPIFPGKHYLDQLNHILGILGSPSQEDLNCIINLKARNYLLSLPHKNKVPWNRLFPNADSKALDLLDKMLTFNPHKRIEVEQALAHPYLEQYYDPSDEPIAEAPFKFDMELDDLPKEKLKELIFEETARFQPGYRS

ERK5 kinase domain, ERK5-(1–431), sequence (Q13164 1-431): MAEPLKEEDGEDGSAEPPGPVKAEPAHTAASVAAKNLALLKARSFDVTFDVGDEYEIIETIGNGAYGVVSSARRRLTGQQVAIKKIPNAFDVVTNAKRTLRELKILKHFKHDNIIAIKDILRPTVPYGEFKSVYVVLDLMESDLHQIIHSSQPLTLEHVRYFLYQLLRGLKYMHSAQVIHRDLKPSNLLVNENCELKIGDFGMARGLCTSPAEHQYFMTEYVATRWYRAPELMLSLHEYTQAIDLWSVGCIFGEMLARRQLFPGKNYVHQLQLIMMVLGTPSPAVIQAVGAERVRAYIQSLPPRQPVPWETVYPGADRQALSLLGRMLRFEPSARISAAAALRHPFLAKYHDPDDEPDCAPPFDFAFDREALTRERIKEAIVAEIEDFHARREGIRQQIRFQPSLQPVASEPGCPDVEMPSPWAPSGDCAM

B1: PB1-D: MKK5 construct (16–130) comprised of the PB1 domain and the linear D-motif (protein, UniProt Q13163 16-130, looked up, fragment)
chain: VLVIRIKIPNSGAVDWTVHSGPQLLFRDVLDVIGQVLPEATTTAFEYEDEDGDRITVRSDEEMKAMLSYYYSTVMEQQVNGQLIEPLQIFPRACKPPGERNIHGLKVNTRAGPSQ
modifications: PB1 domain and D-motif
Binding to ERK5 (result in words) [1]: submicromolar affinity | Binding to ERK2 (result in words) [2]: did not bind
